{"source": "paper PMC4028264", "test_in_all_cases": "native gel or EMSA", "key": {"[1]": {"target": "HIV-1 strain R2 gp140 fused to a modified GCN4 trimerization domain (HIV-1 strain R2 | not stated)"}, "[2]": {"target": "HIV-1 strain R2 gp140 with a 15 amino acid flexible linker between gp120 and the gp41 ectodomain, fu (HIV-1 strain R2 | not stated)"}, "[3]": {"target": "HIV-1 strain R2 soluble gp140 envelope glycoprotein (uncleaved) (HIV-1 strain R2)"}}, "data": [{"substance": "HIV-1 strain R2 gp140 fused to a modified GCN4 trimerization domain (domain or fragment)", "values": [{"measurement": "stoichiometry N", "setting": "[1]", "result": 3}]}, {"substance": "HIV-1 strain R2 gp140 with a 15 amino acid flexible linker between gp120 and the gp41 ectodomain, fu (domain or fragment)", "values": [{"measurement": "stoichiometry N", "setting": "[2]", "result": 3}]}, {"substance": "HIV-1 strain R2 soluble gp140 envelope glycoprotein (uncleaved) (domain or fragment)", "values": [{"measurement": "percent dimer", "setting": "[3]", "result": "> 90", "unit": "%"}, {"measurement": "stoichiometry N", "setting": "[3]", "result": 2}]}]}
